Entries after “also recorded” stand apart in the source; their conditions may differ.

Common to all, as to type: cell-based
Assay [1] concerns the target T1, CCR6 (Homo sapiens, UniProt P51684).
T1 construct: The cDNA fragment covering the open reading frame for CCR6 chemokine receptor was cloned into pEGFP-N1 vector (CLONTECH); expressed in transfected cells; host or cells: HEK293 (transient)
T1 sequence (P51684 1-374): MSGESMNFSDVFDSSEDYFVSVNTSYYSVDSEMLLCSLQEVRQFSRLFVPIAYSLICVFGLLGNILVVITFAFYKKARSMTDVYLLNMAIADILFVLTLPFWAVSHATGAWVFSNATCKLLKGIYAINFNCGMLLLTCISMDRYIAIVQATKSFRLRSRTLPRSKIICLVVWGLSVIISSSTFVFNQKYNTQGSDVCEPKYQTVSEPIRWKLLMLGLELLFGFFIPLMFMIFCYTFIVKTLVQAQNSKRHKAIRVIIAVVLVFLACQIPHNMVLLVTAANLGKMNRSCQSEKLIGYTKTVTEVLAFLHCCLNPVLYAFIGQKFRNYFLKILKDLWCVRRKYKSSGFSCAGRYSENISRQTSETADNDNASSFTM
The assay can be described thus: Internalization of CCR6-EGFP in transiently transfected HEK293 cells. The note with it: HEK293 cells transfected with pCCR6-EGFP; 37° C., 2 hours. The method, then:
The cDNA fragment covering the open reading frame for CCR6 chemokine receptor was cloned into pEGFP-N1 vector (CLONTECH). pCCR6-EGFP transiently expressing HEK293 cells were cultured in glass-bottom dishes in RPMI 1640 with 10% FBS. After 16-24 hours of serum starvation, cells were treated with CKLF1 C-terminal peptides or MIP3α at 37° C. for 2 hours. Cells were washed with cold PBS and fixed with 2% paraformaldehyde in PBS. The subcellular localization of CCR6-EGFP protein was visualized using a Leica TCS-NT confocal fluorescence microscope with a 63× oil immersion lens (Wetzler, Heidelberg, Germany). The excitation and emission wavelengths were 488 and 515-540 nm, respectively.

For assay [2], the target named is T2, CCR4 (Homo sapiens, UniProt P51679).
T2 construct: The cDNA fragments covering the open reading frames for various chemokine receptors were obtained as follows; expressed in transfected cells; host or cells: HEK293 (transient, electroporation)
T2 sequence (P51679 1-360): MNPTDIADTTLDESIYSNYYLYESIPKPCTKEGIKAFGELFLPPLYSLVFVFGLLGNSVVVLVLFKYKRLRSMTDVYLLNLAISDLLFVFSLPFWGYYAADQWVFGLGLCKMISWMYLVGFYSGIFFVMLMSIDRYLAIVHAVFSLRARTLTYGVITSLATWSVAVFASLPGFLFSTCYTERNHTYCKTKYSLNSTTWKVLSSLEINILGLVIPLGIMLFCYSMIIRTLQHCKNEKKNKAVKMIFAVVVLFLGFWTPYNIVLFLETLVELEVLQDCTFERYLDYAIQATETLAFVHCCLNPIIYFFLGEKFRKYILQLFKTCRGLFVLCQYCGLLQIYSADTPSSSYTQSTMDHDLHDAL
Kind of assay: Calcium flux assay in CCR4-transfected HEK293 cells. The note with it: for calcium flux: CCR4-transfected HEK293 cells, 167 nM C27 or C19, 100 nM TARC; for desensitization of transfectants to subsequent TARC treatment: CCR4 transfectants, first 167 nM peptide, then 100 nM TARC. The text has this:
The cDNA fragments covering the open reading frames for various chemokine receptors were obtained as follows. CCR4, CCR5 and CCR6 receptors were cloned from a K562 cell cDNA library by polymerase chain reaction (PCR). The primers were designed using the sequences from the following GenBank™ submissions: CCR4 (NM_005508.2), CCR5 (NM_000579) and CCR6 (AY242126). The fragments were cloned into an expression vector pcDI (modified in our lab from pcDNA3 vector (Invitrogen), in which the part between BgI II-Kpn I was replaced by the fragment of pCl vector (Promega) digested with BgI II-Kpn I) or pEGFP-N1 vector (CLONTECH) for efficient expression in HEK293 cells. The sequences coding receptors in expression plasmids were confirmed by DNA sequencing, which is consistent with the sequence submitted in GenBank™.
HEK293 cells were grown in RPMI 1640 supplemented with 10% heat-inactivated FBS, penicillin (100 U/ml) and streptomycin (100 μg/ml). Every 4×10^6 HEK293 cells in 400 μl were transiently transfected by electroporation with 15 μg of the expression plasmid at 120 V, 20 ms using an electric pulse generator (Electro Square Porator ECM 830, BTX, San Diego, Calif.), and calcium mobilization assay and chemotaxis assays were performed 48 hours later.
HEK293 cells transfected with pcDI-CCR4 or pcDI-CCR5 were grown in specialized glass-bottom microwell dishes (MatTek Corporation, U.S.A.) and loaded with 10 μM fluo-3/AM in HEPES-buffered saline at 37° C. for 1 hour in the dark. The cells were rinsed with HEPES-buffered saline and stimulated with 167 nM secreted CKLF1 peptides and 100 nM TARC or RANTES, respectively. Fluorescence was monitored at 488 nm (excitation wavelength) and 530 nm (emission wavelength) every 5 second using a Leica TCS-NT confocal fluorescence microscope with a 40× oil immersion lens (Wetzler, Heidelberg, Germany). The measurement was completed at room temperature and each field of cells was selected at random. Images were collected at 5 second intervals for 405 seconds. The images were analyzed for relative fluorescence using Leica confocal software. The relative fluorescence was determined using Microsoft Excel. All calcium flux assays were performed in the presence of extracellular calcium (in the absence of EDTA or EGTA) in the assay buffers. Therefore, both intracellular calcium release and extracellular calcium influx were analyzed.
In general terms: Calcium assays in cells follow changes in intracellular calcium, usually with a dye or a luminescent sensor.

The test system of assay [3] is U937 cells. Kind of assay: Chemotaxis of U937 cells. As to conditions: for migration (chemotaxis) of U937 cells: C19, C27, RANTES: U937 cells stimulated by 30 ng/ml IFN-γ. How it is done: The chemotaxis assay was performed using a 48-well microchemotaxis chamber (Neutroprobe, Cabin John, Md., U.S.A.). U937 cells were stimulated by 30 ng/ml IFN-γ for 4 days because IFN-γ could increase the expression of chemokine receptors CCR1, CCR3, and CCR5 in U937 cells. Then part cells were incubated with mouse anti CCR5 100 μg/ml, and/or rat anti CCR3 10 μg/ml for 30 minutes at 37° C., and corresponding mouse IgG and rat IgG as controls. Chemoattractants RANTES, C19 and C27 were diluted in HEPES-buffered RPMI 1640 medium supplemented with 0.5% BSA to indicate concentration, and placed in the lower wells (28 μl/well). U937 cells stimulated by IFN-γ were resuspended in the same medium at 1×10^6 cells/ml and added to the upper wells (50 μl/well), which were separated from the lower wells by a polyvinylpyrrolidone-free polycarbonate filter with 5-μm pores pre-coated by 0.001% fibronectin. The chamber was incubated for 2 hours at 37° C. in 5% CO2 and 95% air. Filters were removed from the chamber, washed, fixed, and stained with Three Step Stain Set. Cells that migrated were counted in 5 randomly selected high power fields (400×) per well. The group with no Chemoattractants in the lower wells was used as a control. All samples were assayed twice at least. The chemotactic index (CI) was calculated from the number of cells that migrated to the control. Significant chemotaxis was defined as CI>2.

Turning to “FNPSGPYQKKPVHEKKEVL (listed as Homo sapiens) [C19]”, the “internalization of CCR6-EGFP” value in assay [1] was “could induce internalization of CCR6-EGFP”. Also, in assay [2], the calcium flux entry is reported as “could induce calcium flux” and the “desensitization of transfectants to subsequent TARC treatment” value is listed as “could desensitize”. For the same substance, the “migration (chemotaxis) of U937 cells” value in assay [3] was “could induce migration”.

With “ALIYRKL LFNPSGPYQKKPVHEKKEVL (ALIYRKLLFNPSGPYQKKPVHEKKEVL; listed as Homo sapiens) [C27]”, the “internalization of CCR6-EGFP” value in assay [1] is reported as “could induce internalization of CCR6-EGFP”. In assay [2], the calcium flux result is given as “could induce calcium flux” and the “desensitization of transfectants to subsequent TARC treatment” value is “could desensitize”. For the same substance, the “migration (chemotaxis) of U937 cells” value in assay [3] is given as “could induce migration”. Besides, the “chemotactic activity after neutralization of chemokine receptors” value in assay [3] (IFN-γ-stimulated U937 cells, mouse anti CCR5 and/or rat anti CCR3) is “had no chemotactic activity; also recorded: obviously inhibited”.
